Assay results as given in publication PMC6994475.

Columns and labels:
Test in all cases: EMSA
Conditions in all cases: EMSA: 10 nM 6-FAM oligo, 50 mM HEPES pH 7.5, 250 mM NaCl, 1 mM DTT, 2.5 mM EDTA, 10% glycerol, on ice 10 min, 8% native PAGE; sumo-rA3G after heavy RNase A/T1 …
[1] = system: rA3G E/Q (Macaca mulatta)
[2] = system: rA3G rM15 (Macaca mulatta)
[3] = system: rA3G rM12 (Macaca mulatta)
[4] = system: rA3G rM11 (Macaca mulatta)
[5] = system: rA3G rM13 (Macaca mulatta)
[6] = system: rA3G rM10 (Macaca mulatta)
[7] = system: rA3G rM14 (Macaca mulatta)
[8] = system: rA3G R24T (Macaca mulatta)
[9] = system: rA3G WT (parental construct, R8 K128D) (Macaca mulatta)
[10] = system: rA3G rM9 (Macaca mulatta)

Substance	Kd [1] [µM]	Kd [2] [µM]	Kd [3] [µM]	Kd [4] [µM]	Kd [5] [µM]	Kd [6] [µM]	Kd [7] [µM]	Kd [8] [µM]	Kd [9] [µM]	Kd [10] [µM]
50 nt ssDNA	0.01	0.071	0.188	0.089	0.155	0.053	0.102	0.051	0.024	0.074
50 nt ssRNA	0.019	0.021	0.052	0.021	0.043	0.024	0.015	0.021	0.022	0.02
